T1: cyno TCRab, in house produced (extracellular domains fused to a zipper peptide) (cynomolgus)
T1 construct: Numbering of the four differences is not explained; not shown: variable domains, if any; any residues beyond C131 of the beta chain
T1 alpha: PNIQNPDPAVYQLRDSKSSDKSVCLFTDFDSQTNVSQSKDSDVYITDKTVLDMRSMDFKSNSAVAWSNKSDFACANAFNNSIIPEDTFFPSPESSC
T1 beta: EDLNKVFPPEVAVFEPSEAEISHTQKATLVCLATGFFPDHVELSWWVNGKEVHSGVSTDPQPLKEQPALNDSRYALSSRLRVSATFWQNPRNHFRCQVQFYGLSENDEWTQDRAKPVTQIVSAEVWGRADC

T2: TCRab on primary human T cells (human, UniProt P01848 1-140; P01850 1-176)
T2 construct: whole, on cells; T cells isolated from buffy coats; also called Primary hu T cells; human TCR
T2 TCR alpha (looked up): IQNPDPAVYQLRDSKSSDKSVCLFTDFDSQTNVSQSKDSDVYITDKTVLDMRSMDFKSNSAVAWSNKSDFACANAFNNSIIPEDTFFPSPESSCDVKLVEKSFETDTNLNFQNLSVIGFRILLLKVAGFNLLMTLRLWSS
T2 TCR beta (looked up): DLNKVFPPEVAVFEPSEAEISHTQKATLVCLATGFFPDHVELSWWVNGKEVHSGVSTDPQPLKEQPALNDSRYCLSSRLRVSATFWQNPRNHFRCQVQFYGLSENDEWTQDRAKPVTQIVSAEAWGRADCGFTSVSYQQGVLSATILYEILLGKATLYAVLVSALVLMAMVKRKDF


Columns and labels:
[1] = molecular target: T1, cyno TCRab, in house produced …; test: SPR ProteOn XPR36, TCRab immobilized by amine coupling, 1:1 model
Method: Recombinant TCR proteins were immobilized on a GLC Sensor Chip (Biorad) via amine coupling, using EDC and NHS chemistry (running buffer: HBS-EP+, pH 7.4). Purified ISVDs were injected for 2 minutes (flow rate 45 μL/min) at different concentrations (between 0.2 nM and 200 nM) and dissociation was followed for 900 s. Regeneration was performed by injecting 3 M MgCl₂ for 3 minutes (flow rate 90 μL/min). Data was double referenced by subtracting a reference ligand lane and a blank buffer injection. Processed sensorgrams were analyzed based on the 1:1 interaction model (Langmuir binding model) using ProteOn Manager 3.1.0 (Version 3.1.0.6) software.

[2] = molecular target: T3, TCRab on primary cyno T cells (cynomolgus); test: competition flow cytometry on cyno T cells, competitor T017000623 at EC30 (5E-08 M)
T3 construct: whole, on cells; also called Primary cy T cells; cyno TCR
Method: (§1) T cells (human T cells obtained as described in Example 3 and cyno T cells purchased from LPT laboratory, Germany) were thawed and counted on the day of the assay and diluted to a concentration of 1E+06 cells/mL, before adding 75 μL to the wells of a V-bottom 96-well plate (Greiner, cat no 651180). Cells were washed once with cold FACS buffer, before adding 25 μL Nb and 25 μL competitor to the wells. […] Cells were resuspended and plates were incubated at 4° C. for 90 minutes, after which plates were washed twice in cold FACS buffer. Cells were resuspended in 50 μl 1/1000 diluted Monoclonal ANTI-FLAG® M2 (Sigma Aldrich, cat no F1804) in FACS buffer and incubated at 4° C. for 30 minutes. Plates were washed twice in cold FACS buffer. […] Plates were washed twice in cold FACS buffer. Cells were resuspended in 55 μL 1/1000 diluted Propidium Iodide (Sigma-Aldrich, cat no P4170) in FACS buffer before acquiring data on the MACSQuant X (Miltenyi biotec).

[3] = molecular target: T2, TCRab on primary human T cells; test: competition flow cytometry on primary human T cells, competitor T017000624 at EC30 (2E-08 M)
Method: as §1

[4] = molecular target: T4, human GPC3 on tumor cell lines (HepG2, Huh-7, NCI-H661, MKN-45, NCI-H23, BxPC-3, NCI-H292) (human, UniProt P51654 25-554); test: pHAb internalization assay on Huh-7 cells, flow cytometry (BD FACSArray, yellow laser); indirect readout that needs binding and uptake; concentration not given
T4 construct: Endogenous GPC3 of human cancer cell lines; also called GPC3 on HepG2; GPC3 on Huh-7
Method: The assay was read on a BD FACSArray with a yellow laser (pHAb: excitation maximum at 532 nm, emission maximum at 560 nm). The internalization rate was determined by quantifying the internalization at 37° C. at different timepoints (0.5 h, 3 h, 24 h and 48 h) compared to 4° C. at 0.5 h (Table 10, FIG. 8A).

| Binder | Kd [1] [nM] | IC50 [2] [nM] | IC50 [3] [nM] | binding result [4] |
| --- | --- | --- | --- | --- |
| T017000698 (bispecific antibody, Bivalent ISVD construct: anti-TCR and anti-albumin; also called TCE01-9GS-ALB23002-A) DVQLVESGGGVVQPGGSLRLSCVASGYVHKINFYGWYRQAPGKEREKVAHISIGDQTDYADSAKGRFTISRDESKNTVYLQMNSLRPEDTAAYYCRALSRIWPYDYWGQGTLVTVSSGGGGSGGGSEVQLVESGGGVVQPGGSLRLSCAASGFTFRSFGMSWVRQAPGKGPEWVSSISGSGSDTLYADSVKGRFTISRDNSKNTLYLQMNSLRPEDTALYYCTIGGSLSRSSQGTLVTVSSA | 11 | 250 | 190 | – |
| A022600373 (bispecific antibody, pHAb dye on the C-terminal GGC (degree of labeling 1), also called TCE01-20GS-ALB23002-GGC) DVQLVESGGGVVQPGGSLRLSCVASGYVHKINFYGWYRQAPGKEREKVAHISIGDQTDYADSAKGRFTISRDESKNTVYLQMNSLRPEDTAAYYCRALSRIWPYDYWGQGTLVTVSSGGGGSGGGGSGGGGSGGGGSEVQLVESGGGVVQPGGSLRLSCAASGFTFRSFGMSWVRQAPGKGPEWVSSISGSGSDTLYADSVKGRFTISRDNSKNTLYLQMNSLRPEDTALYYCTIGGSLSRSSQGTLVTVSSGGC | – | – | – | no binding |

Source: patent publication US20240343823A1 (Ablynx, published 2024)
